Test results as given in patent US20230381229A1.

Legend:
[1] = molecular target: CD80 expressed on cells (Homo sapiens); test: flow cytometry, cells expressing CD80
[2] = molecular target: PD-1 expressed on cells (human); test: flow cytometry, cells expressing PD-1
human CD226 (human) = molecular target: T1, human CD226 (human); test: flow cytometry, transfected HEK293 cells, 100 nM
T1 sequence: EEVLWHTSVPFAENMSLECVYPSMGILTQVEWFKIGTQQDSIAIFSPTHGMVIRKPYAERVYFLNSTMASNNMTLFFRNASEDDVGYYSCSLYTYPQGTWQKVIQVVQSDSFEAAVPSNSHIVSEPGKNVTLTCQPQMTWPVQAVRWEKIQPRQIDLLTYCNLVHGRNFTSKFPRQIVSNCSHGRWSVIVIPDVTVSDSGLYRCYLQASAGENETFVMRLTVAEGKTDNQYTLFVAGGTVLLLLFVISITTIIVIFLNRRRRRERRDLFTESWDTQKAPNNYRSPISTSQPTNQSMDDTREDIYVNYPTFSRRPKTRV

human TIGIT (human) [3] = test: flow cytometry, transfected HEK293 cells, 100 nM
[4] = molecular target: CD112R (Homo sapiens (Human)) (UniProt Q6DKI7); test: flow cytometry, transfected HEK293 cells, 100 nM
human CD96 (human) = molecular target: T2, human CD96 (human) (UniProt P40200); test: flow cytometry, transfected HEK293 cells, 100 nM
T2 sequence: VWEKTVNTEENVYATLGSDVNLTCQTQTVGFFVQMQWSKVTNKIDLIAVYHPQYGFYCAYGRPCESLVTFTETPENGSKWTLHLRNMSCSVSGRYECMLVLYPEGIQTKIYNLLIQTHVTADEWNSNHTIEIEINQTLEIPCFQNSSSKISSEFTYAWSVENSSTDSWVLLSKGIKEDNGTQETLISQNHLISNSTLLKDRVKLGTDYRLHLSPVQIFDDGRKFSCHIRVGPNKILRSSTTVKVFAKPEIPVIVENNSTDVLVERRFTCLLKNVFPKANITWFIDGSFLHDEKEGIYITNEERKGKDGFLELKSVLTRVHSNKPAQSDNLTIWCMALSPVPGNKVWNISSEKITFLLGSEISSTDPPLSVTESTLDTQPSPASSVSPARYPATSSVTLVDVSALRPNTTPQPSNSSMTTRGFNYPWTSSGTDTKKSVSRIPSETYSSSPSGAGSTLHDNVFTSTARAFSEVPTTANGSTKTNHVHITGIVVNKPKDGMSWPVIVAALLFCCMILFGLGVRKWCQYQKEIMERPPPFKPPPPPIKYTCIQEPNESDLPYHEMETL

human TIGIT (human) [5] = molecular target: human TIGIT (human)
[6] = molecular target: CD112R (Homo sapiens (Human)) (UniProt Q6DKI7)
[7] = molecular target: T3, human TIGIT, full-length, expressed on transfected HEK293 cells (human); test: flow cytometry, HEK293 transfectants, 100 nM
T3 sequence: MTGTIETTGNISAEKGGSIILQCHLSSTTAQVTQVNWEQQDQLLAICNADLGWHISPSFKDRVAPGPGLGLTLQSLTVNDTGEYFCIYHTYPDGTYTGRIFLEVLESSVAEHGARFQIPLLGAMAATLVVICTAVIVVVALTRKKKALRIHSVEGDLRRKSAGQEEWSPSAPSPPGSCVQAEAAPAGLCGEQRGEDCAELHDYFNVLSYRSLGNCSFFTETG

[8] = molecular target: T4, human CD96, full-length, expressed on transfected HEK293 cells (human) (UniProt P40200); test: flow cytometry, HEK293 transfectants, 100 nM
T4 sequence: T2 sequence

[9] = molecular target: PD-1 expressed on cells (human); test: flow cytometry, Jurkat/PD-1 cells
Target sequence in this assay (chain, as listed by the source): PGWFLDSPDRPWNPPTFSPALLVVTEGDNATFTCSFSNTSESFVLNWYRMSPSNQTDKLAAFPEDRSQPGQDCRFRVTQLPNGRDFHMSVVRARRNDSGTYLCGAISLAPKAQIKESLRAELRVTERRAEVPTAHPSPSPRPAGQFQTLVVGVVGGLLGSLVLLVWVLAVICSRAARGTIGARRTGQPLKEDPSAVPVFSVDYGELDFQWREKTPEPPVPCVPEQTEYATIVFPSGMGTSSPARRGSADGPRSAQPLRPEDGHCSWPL

PD-1-Fc (Homo sapiens) = test: ForteBio, PD-1-Fc
Chain of PD-1-Fc (Homo sapiens) (chain, as listed by the source limits assumed): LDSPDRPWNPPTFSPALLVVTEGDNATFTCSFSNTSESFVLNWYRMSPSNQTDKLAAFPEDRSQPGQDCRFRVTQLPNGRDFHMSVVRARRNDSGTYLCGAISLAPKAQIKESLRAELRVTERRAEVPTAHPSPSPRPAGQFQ

Chain of CD155 IgV Fc (P15151 21-142): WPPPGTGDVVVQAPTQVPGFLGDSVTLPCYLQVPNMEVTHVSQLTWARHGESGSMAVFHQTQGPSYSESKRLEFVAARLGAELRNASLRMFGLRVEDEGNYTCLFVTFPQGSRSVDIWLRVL
Chain of CD112R (Homo sapiens (Human)) (Q6DKI7 whole entry): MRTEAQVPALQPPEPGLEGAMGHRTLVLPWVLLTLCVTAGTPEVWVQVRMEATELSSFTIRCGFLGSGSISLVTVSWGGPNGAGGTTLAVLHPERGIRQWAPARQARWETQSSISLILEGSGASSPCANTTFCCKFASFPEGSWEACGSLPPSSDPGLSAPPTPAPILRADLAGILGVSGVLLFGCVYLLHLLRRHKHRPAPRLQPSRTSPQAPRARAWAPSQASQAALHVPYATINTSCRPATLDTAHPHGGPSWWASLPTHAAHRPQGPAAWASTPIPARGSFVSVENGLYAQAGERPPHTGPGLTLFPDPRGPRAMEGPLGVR
Chain of CTLA4-Fc (Fc fusion) (chain): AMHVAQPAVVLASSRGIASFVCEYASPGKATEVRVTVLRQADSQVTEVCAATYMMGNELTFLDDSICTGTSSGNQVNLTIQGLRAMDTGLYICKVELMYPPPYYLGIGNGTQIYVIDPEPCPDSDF
Chain of CD112 ECD-Fc (Fc fusion) (chain): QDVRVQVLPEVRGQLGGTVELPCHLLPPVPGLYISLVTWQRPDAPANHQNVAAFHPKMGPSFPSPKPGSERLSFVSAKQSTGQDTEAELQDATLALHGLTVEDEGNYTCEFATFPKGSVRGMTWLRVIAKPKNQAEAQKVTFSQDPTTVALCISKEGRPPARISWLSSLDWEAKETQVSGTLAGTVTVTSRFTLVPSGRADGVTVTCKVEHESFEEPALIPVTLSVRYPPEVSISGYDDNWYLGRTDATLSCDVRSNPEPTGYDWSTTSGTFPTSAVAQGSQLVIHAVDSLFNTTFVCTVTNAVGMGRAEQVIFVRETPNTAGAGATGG
Chain of human PD-1 (human) (chain, as listed by the source limits assumed): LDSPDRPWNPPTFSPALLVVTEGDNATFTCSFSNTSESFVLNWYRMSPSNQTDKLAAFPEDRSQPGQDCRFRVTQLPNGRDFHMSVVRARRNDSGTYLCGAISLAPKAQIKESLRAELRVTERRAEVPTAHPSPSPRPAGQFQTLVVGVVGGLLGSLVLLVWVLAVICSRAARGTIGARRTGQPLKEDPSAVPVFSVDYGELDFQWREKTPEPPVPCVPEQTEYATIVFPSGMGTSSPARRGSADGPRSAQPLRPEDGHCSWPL

| Substance | MFI at 20 nM [1] | Fold Change Compared to WT PD-L1 [2] | MFI at 20 nM [2] | also measured |
| --- | --- | --- | --- | --- |
| variant PD-L1 ECD-Fc V129D, T150A (Fc fusion) | 142 | 0.6 |  |  |
| variant PD-L1 ECD-Fc G15A, V129D (Fc fusion) | 128 | 0.7 |  |  |
| CTLA4-Fc (Fc fusion) | 200000 |  | 59 |  |
| variant PD-L1 ECD-Fc M18V, I98L, L124S, P198T, L206F (Fc fusion) | 143 | 0.7 |  |  |
| CD155 IgV Fc (from UniProt P15151) (Fc fusion) |  |  |  | MFI at 100 nM (human CD226 (human)): 4690; MFI at 100 nM (human TIGIT (human) [3]): 4690; Fold ↑ to WT ECD [4]: 1.65; MFI at 100 nM [4]: 2940; MFI at 100 nM (human CD96 (human)): 3270 |
| variant PD-L1 ECD-Fc I36T, M97L, A103V, Q155H (Fc fusion) | 128 | 0 | 120 |  |
| variant PD-L1 ECD-Fc G15A, I36T, V129D (Fc fusion) | 136 | 0 | 114 |  |
| variant PD-L1 ECD-Fc V93E, V129D (Fc fusion) | 150 | 0.4 |  |  |
| variant PD-L1 ECD-Fc V129D, H202Q (Fc fusion) | 219 | 0.6 |  | Fold Change Compared to WT PD-L1 [1]: 1.6 |
| variant PD-L1 ECD-Fc K28I, S99G (Fc fusion) |  |  | 830 |  |
| Fc Control | 132 |  | 59 | RLU (IL-2-luciferase reporter) (human TIGIT (human) [5]): 624 RLU; RLU (IL-2-luciferase reporter) (human PD-1 (human)): 624 RLU; RLU (IL-2-luciferase reporter) [6]: 624 RLU |
| CD112 ECD-Fc (Fc fusion) |  |  |  | MFI at 100 nM [7]: 29200 MFI; MFI at 100 nM [8]: 1100 MFI |
| variant PD-L1 ECD-Fc M18V, M97L, F193S, R195G, E200K, H202Q (Fc fusion) |  | 0 | 69 |  |
| variant PD-L2 IgV-Fc H15Q, R76G, I85F (SEQ ID NO 685) (Fc fusion) |  |  |  | Fold increase over wildtype PD-L2 IgV-Fc [9]: 0.19; MFI at 50 nM [9]: 1890; Fortebio binding to PD-1-Fc Response Units (Response Units) (PD-1-Fc (Homo sapiens)): -0.006 |
| variant PD-L1 ECD-Fc I36T, G52R, M97L, V112A, K144E, V175A, P198T (Fc fusion) | 149 | 0 | 81 |  |
| variant PD-L2 IgV-Fc H15Q, R76G, I85F (SEQ ID NO 680) (Fc fusion) |  |  |  | Fold increase over wildtype PD-L2 IgV-Fc [9]: 0.3; MFI at 50 nM [9]: 2940; Fortebio binding to PD-1-Fc Response Units (Response Units) (PD-1-Fc (Homo sapiens)): -0.038 |
| variant PD-L1 ECD-Fc I36T, I46V, D55G, M97L, K106E, K144E, T185A, R195G (Fc fusion) | 190 | 0 | 69 |  |
| variant PD-L1 ECD-Fc V129D, P198T (Fc fusion) | 152 | 1 |  |  |
| variant PD-L1 ECD-Fc G15A, I36T, V129D, R195G (Fc fusion) |  | 0 | 125 |  |
| variant PD-L1 ECD-Fc G15A, I36T, M97L, K111E, H202Q (Fc fusion) |  |  | 112 |  |
| variant PD-L1 ECD-Fc L35P, I36S, M97L, K111E (Fc fusion) | 155 | 0.1 | 190 |  |
